Reference: patent US20090117124A1 (Pfizer, published 2009)

Key:
[1] = target: T1, human IgE (Human myeloma, azide free, Serotec, Cat. No. PHP008X2) (human, UniProt P01854 1-546); test: cell-based or functional assay
[2] = target: T2, cynomolgus monkey IgE (in cynomolgus serum, Harlan Sera-Lab Ltd) (cynomolgus monkey); test: capture ELISA, Test 1, Cyno 4
T2 construct: Serum was the source of IgE; eight serum samples; also called cynomolgus IgE; Cyno 1 to Cyno 8 serum samples
Protocol: (§1) Wells were washed once with 150 μL/well wash buffer (0.05% Tween-20, Sigma, Cat. No. P7949/TBS) then blocked with 150 μL/well 1% BSA (Sigma, Cat. No. A7030) in TBS for 2 hours at room temperature. Wells were washed twice with 150 μL wash buffer. 50 μL human (in-house donors) or cynomolgus serum (Harlan Sera-Lab Ltd, Loughborough) was added from neat to at least 1:16 dilution in 1% BSA/0.05% Tween-20/TBS diluent buffer. […] Wells were incubated for 2 hours at 25° C. before washing (3×150 μL wash buffer). […] Wells were incubated for 1 hour at 25° C. then washed (3×150 μL wash buffer). Streptavidin-HRP (Amersham Bioscience, Cat. No. RPN 1231) diluted 1:1000 in diluent buffer was added to all wells and incubated for 45 minutes at room temperature. Wells were washed (3×150 […] wash buffer). 50 μL OPD (Dako, Cat. No. S2045) was added to all wells and the color allowed to develop for 10 minutes before stopping the reaction with 50 μl 0.6M H₂SO₄ and the absorbance measured at 490 nm.

[3] = target: T2, cynomolgus monkey IgE (in cynomolgus …); test: capture ELISA, Test 1, Cyno 6
Protocol: as §1

[4] = target: T2, cynomolgus monkey IgE (in cynomolgus …); test: capture ELISA, Test 1, Cyno 7
Protocol: as §1

[5] = target: T2, cynomolgus monkey IgE (in cynomolgus …); test: capture ELISA, Test 2, Cyno 1
Protocol: as §1

[6] = target: T2, cynomolgus monkey IgE (in cynomolgus …); test: capture ELISA, Test 2, Cyno 2
Protocol: as §1

[7] = target: T2, cynomolgus monkey IgE (in cynomolgus …); test: capture ELISA, Test 2, Cyno 5
Protocol: as §1

[8] = target: T2, cynomolgus monkey IgE (in cynomolgus …); test: capture ELISA, Test 2, Cyno 8
Protocol: as §1

[9] = target: T3, free IgE in human serum (healthy volunteers, in-house donors) (human, UniProt P01854-1 1-428); test: capture ELISA, Test 1, human serum
T3 construct: Kept apart from the bought myeloma IgE because it is native serum IgE of single donors; also called serum IgE
Protocol: as §1

[10] = target: T3, free IgE in human serum (healthy …); test: serum free IgE depletion ELISA; DIN 0284
Protocol: (§2) The next day ELISA plates were washed 1× with 300 μL/well wash buffer (0.05% Tween-20, Sigma, Cat. No. P7949/TBS) then blocked with 150 μL/well 1% BSA (Sigma, Cat. No. A7030) in TBS for 1 hour at room temperature.

[11] = target: T3, free IgE in human serum (healthy …); test: serum free IgE depletion ELISA; DIN 0347
Protocol: as §2

[12] = target: T3, free IgE in human serum (healthy …); test: serum free IgE depletion ELISA; DIN 0461
Protocol: as §2

[13] = target: T3, free IgE in human serum (healthy …); test: serum free IgE depletion ELISA; DIN 0591
Protocol: as §2

[14] = target: T3, free IgE in human serum (healthy …); test: serum free IgE depletion ELISA; DIN 0649
Protocol: as §2

[15] = target: T1, human IgE (Human myeloma, azide free, …); test: inhibition of IgE binding to RBL-2H3 (FcεR1) cells
Protocol: RBL-2H3 (FcεR1) cells were cultured in MEM-Earles (Invitrogen Cat. No. 2109002) supplemented with 2 mM L-Glutamine (Sigma, Cat. No. G7513), 1 mg/mL Geneticin Liquid (Invitrogen Cat. No. 10131027) and 15% FBS (PAA Laboratories GmbH, Cat. No. A15-043). RBL-2H3 (FcεR1) cells were seeded into sterile 96-well plates (Costar, Fisher Scientific, Cat. No. TKY-521-090S) at 1×10⁵ cells/well and cultured overnight at 37° C., 5% CO₂ in a humidified atmosphere. The next day cells were washed 3× with 150 μL/well wash buffer (10% BSA, Sigma Cat. No A7030, in PBS, Sigma, Cat. No D8537). […] Cells were washed 3× with 150 μL/well wash buffer and then incubated with 50 μL/well streptavidin-HRP (Amersham Bioscience, Cat. No. RPN 1231) diluted 1:250, for 45 minutes. Cells were washed 3× with 150 μL/well wash buffer. 50 μL OPD (Dako, Cat. No. S2045) was added to all wells and the colour allowed to develop for 10 minutes before stopping the reaction with 50 μL 0.6M H₂SO₄ and the absorbance measured at 490 nm.

[16] = target: T3, free IgE in human serum (healthy …); test: serum free IgE depletion ELISA; DIN 0321 experiment 2
Protocol: as §2

[17] = target: T3, free IgE in human serum (healthy …); test: serum free IgE depletion ELISA; DIN 0623 experiment 1
Protocol: as §2

[18] = target: T3, free IgE in human serum (healthy …); test: serum free IgE depletion ELISA; DIN 0623 experiment 2
Protocol: as §2

T1 sequence (P01854 whole entry): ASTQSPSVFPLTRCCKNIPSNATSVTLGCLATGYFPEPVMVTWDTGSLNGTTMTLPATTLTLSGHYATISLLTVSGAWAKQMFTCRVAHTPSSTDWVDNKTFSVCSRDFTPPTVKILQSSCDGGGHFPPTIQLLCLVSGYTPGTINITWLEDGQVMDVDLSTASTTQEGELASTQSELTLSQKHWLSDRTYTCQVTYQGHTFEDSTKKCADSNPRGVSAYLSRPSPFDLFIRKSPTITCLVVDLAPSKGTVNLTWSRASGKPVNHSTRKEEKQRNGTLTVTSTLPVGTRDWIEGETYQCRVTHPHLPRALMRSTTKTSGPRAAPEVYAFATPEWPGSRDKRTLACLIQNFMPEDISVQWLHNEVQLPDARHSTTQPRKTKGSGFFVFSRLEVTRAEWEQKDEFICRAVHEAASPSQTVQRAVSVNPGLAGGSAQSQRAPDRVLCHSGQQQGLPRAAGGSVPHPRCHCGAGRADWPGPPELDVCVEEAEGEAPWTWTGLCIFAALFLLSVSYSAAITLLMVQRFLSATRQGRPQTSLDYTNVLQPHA
T3 sequence (P01854 other isoform, or with tags, fused parts or gaps): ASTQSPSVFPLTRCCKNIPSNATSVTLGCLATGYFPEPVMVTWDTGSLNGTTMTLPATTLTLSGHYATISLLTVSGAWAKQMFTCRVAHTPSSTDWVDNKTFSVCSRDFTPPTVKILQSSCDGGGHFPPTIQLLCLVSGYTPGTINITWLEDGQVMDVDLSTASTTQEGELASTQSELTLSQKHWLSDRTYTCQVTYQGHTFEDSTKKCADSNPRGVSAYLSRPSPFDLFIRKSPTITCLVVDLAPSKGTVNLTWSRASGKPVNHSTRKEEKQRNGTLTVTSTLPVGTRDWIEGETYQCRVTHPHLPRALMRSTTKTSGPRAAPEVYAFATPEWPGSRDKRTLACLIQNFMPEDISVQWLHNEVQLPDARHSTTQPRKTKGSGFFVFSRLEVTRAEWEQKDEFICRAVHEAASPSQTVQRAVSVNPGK

Row | IC50, inhibition of IgE-mediated degranulation (histamine release) of RBL-2H3 (FcεR1) cells; Batch 1 [1] [µg/mL] | IC50, inhibition of IgE-mediated degranulation (histamine release) of RBL-2H3 (FcεR1) cells; Batch 2 [1] [µg/mL] | IgE concentration detected [2] [ng/mL] | IgE concentration detected [3] [ng/mL] | IgE concentration detected [4] [ng/mL] | IgE concentration detected [5] [ng/mL] | IgE concentration detected [6] [ng/mL] | IgE concentration detected [7] [ng/mL] | IgE concentration detected [8] [ng/mL] | IgE concentration detected [9] [ng/mL] | IC25 ng/mL [10] [µg/mL] | IC25 ng/mL [11] [µg/mL] | IC25 ng/mL [12] [µg/mL] | IC25 ng/mL [13] [µg/mL] | IC25 ng/mL [14] [µg/mL] | IC50 [15] [µg/mL] | IC25 ng/mL [16] [µg/mL] | IC25 ng/mL [17] [µg/mL] | IC25 ng/mL [18] [µg/mL] | IC50, inhibition of IgE-mediated degranulation (histamine release) of RBL-2H3 (FcεR1) cells [1] [µg/mL] | Binder
1 | 0.36 | 0.123 | 39 | 53 | 8 | 289 | 328 | 630 | 56 | 468 | 2.45 | 4.92 | 1.47 | 2.35 | 1.95 | < 0.5 | 7.9 | 0.5 | 4.13 | – | 5.948.1 (recombinant) (antibody, human IgG2, kappa, V domains shown, Human IgG2 kappa; leader omitted; Two batches were tested in some assays; also called recombinant 5.948.1; 5.948.1 - Batch 1 (762.8 µg/mL)) VH: QVQLVQSGAEVKKPGASVKVSCKASGYTFTSYDINWVRQATGQGLEWMGWMDPNSGNTGYAQKFQGRVTMTRNTSISTAYMELSSLRSEDTAVYYCARGHYDSDGYYSFSGMDVWGQGTTVTVSS VL: not shown
2 | – | – | – | – | – | 170 | 199 | 420 | 36 | – | – | 1.33 | 0.34 | 0.55 | 0.39 | < 0.5 | 2.55 | – | 0.76 | 0.0121 | 5.948.1 Hc-H100Y (antibody, human IgG2, kappa, V domains shown, Human IgG2 kappa; leader omitted; also called 5.948.1 (H100Y); 5.948.1 H100Y) VH: QVQLVQSGAEVKKPGASVKVSCKASGYTFTSYDINWVRQATGQGLEWMGWMDPNSGNTGYAQKFQGRVTMTRNTSISTAYMELSSLRSEDTAVYYCARGYYDSDGYYSFSGMDVWGQGTTVTVSS VL: not shown
